Measurements: patent publication US7659073 (HYBRITECH, dated 2010)

T1: α1-antichymotrypsin (ACT) (UniProt P01011 24-423)
T1 sequence (looked up): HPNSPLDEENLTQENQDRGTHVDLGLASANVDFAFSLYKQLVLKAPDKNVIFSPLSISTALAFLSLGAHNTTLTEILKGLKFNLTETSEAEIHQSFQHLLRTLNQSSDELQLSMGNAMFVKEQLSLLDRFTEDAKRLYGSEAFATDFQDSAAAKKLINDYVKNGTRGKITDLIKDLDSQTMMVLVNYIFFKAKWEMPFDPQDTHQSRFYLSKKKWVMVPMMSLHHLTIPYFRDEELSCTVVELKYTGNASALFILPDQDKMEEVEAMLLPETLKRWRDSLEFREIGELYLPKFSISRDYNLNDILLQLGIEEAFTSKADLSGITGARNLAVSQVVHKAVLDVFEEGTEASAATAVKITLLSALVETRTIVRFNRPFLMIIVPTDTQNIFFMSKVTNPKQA


Legend:
[1] = molecular target: T1, α1-antichymotrypsin (ACT); experiment: incubation with ACT, HIC-HPLC profile
[2] = molecular target: T1, α1-antichymotrypsin (ACT); experiment: incubation with ACT for two hours at 37° C., HIC-HPLC profile
Method: High performance hydrophobic interaction chromatography (HIC-HPLC) was performed using a polypropylaspartamide column (PolyLC, distributed by Western Analytical, Temecula, Calif.). The column was 4.6×250 mm in length with a 1000 Å pore size. Samples were applied in 1.5 M ammonium sulfate and eluted with a gradient: Buffer A: 1.2 M sodium sulfate, 25 mM sodium phosphate, pH 6.3, and Buffer B: 50 mM sodium phosphate, 5% v/v 2-propanol. The gradient was […], 1 min, 30-80% B, 12 min, then isocratic at 80% B for 2 min before equilibration in Buffer A. High sensitivity peak detection was obtained with a Varian Model 9070 scanning fluorescence detector using an excitation of 232 nm and emission of 334 nm to detect the tryptophan residues in protein.
To confirm that the pro forms of PSA are not reactive with ACT, a mixture of purified mature PSA, [−4]pPSA and [−7, −5]pPSA, were incubated with ACT. […] Only the mature PSA forms an ACT complex.

| Binder | binding result [1] | binding result [2] |
| --- | --- | --- |
| [-5]pPSA (enzyme, Not resolved from [-7]pPSA by HIC-HPLC; tested as an about equal mixture with [-7]pPSA; also called [-5]proPSA; part of the [-5/-7]pPSA peak) not shown | no binding (tested: 4× excess of ACT) |  |
| [-2]pPSA (enzyme, It is mature PSA preceded by the leader SR; also called [-2]proPSA) not shown | no binding (tested: 4× excess of ACT) |  |
| [-4]pPSA (enzyme, Recombinant from AV12 cells; also found in pooled prostate cancer serum; also called [-4]proPSA) not shown | no binding (tested: 4× excess of ACT) |  |
| [-7]pPSA (enzyme, The purified peak holds about equal levels of [-7]pPSA and [-5]pPSA, which are not resolved from each other; also called [-7]proPSA; full length [-7]pPSA) not shown |  | no binding |
